Reference: the Human Domainome abundance scans (Beltran et al. 2025)
± gives the uncertainty stated by the source.

B1: KAT8 regulatory NSL complex subunit 2, residues 28 to 91; numbered along this chain, Q9H9L4 (parent)
chain: CAFTHRPCSHPRLEGQEFCIKHILEDKNAPFKQCSYISTKNGKRCPNAAPKPEKKDGVSFCAEH

Variants of: B1
Test: abundance fitness (aPCA) (normalised: wild type 0, dead -1); higher = more abundant; growth selection in yeast, the domain comes from the species named
Details: Homo sapiens
In the case of CAFTHRPCSHPRLEGQEFCIKHILEDKNAIFKQCSYISTKNGKRCPNAAPKPEKKDGVSFCAEH, the abundance fitness is reported as -0.162 ± 0.13.
Variant CAFTHRPCSHPRLEGQEFCIKHILEDKNAKFKQCSYISTKNGKRCPNAAPKPEKKDGVSFCAEH has an abundance fitness of -0.156 ± 0.1.
CAFTHRPCSHPRLEGQEFCIKHILEDKNALFKQCSYISTKNGKRCPNAAPKPEKKDGVSFCAEH gave an abundance fitness of -0.188 ± 0.046.
With CAFTHRPCSHPRLEGQEFCIKHILEDKNAMFKQCSYISTKNGKRCPNAAPKPEKKDGVSFCAEH the abundance fitness was -0.261 ± 0.084.
In the case of CAFTHRPCSHPRLEGQEFCIKHILEDKNANFKQCSYISTKNGKRCPNAAPKPEKKDGVSFCAEH, the abundance fitness is reported as -0.178 ± 0.11.
For CAFTHRPCSHPRLEGQEFCIKHILEDKNAQFKQCSYISTKNGKRCPNAAPKPEKKDGVSFCAEH, the abundance fitness was -0.279 ± 0.1.
With CAFTHRPCSHPRLEGQEFCIKHILEDKNARFKQCSYISTKNGKRCPNAAPKPEKKDGVSFCAEH the abundance fitness was -0.198 ± 0.046.
CAFTHRPCSHPRLEGQEFCIKHILEDKNASFKQCSYISTKNGKRCPNAAPKPEKKDGVSFCAEH showed an abundance fitness of -0.136 ± 0.052.
Variant CAFTHRPCSHPRLEGQEFCIKHILEDKNATFKQCSYISTKNGKRCPNAAPKPEKKDGVSFCAEH has an abundance fitness of -0.184 ± 0.066.
CAFTHRPCSHPRLEGQEFCIKHILEDKNAVFKQCSYISTKNGKRCPNAAPKPEKKDGVSFCAEH gave an abundance fitness of -0.256 ± 0.068.
CAFTHRPCSHPRLEGQEFCIKHILEDKNAWFKQCSYISTKNGKRCPNAAPKPEKKDGVSFCAEH gave an abundance fitness of -0.514 ± 0.087.
Work on CAFTHRPCSHPRLEGQEFCIKHILEDKNAYFKQCSYISTKNGKRCPNAAPKPEKKDGVSFCAEH yielded an abundance fitness of -0.335 ± 0.076.
With CAFTHRPCSHPRLEGQEFCIKHILEDKNAPAKQCSYISTKNGKRCPNAAPKPEKKDGVSFCAEH the abundance fitness was -0.197 ± 0.046.
CAFTHRPCSHPRLEGQEFCIKHILEDKNAPGKQCSYISTKNGKRCPNAAPKPEKKDGVSFCAEH gave an abundance fitness of -0.1 ± 0.062.
In the case of CAFTHRPCSHPRLEGQEFCIKHILEDKNAPHKQCSYISTKNGKRCPNAAPKPEKKDGVSFCAEH, the abundance fitness is reported as -0.261 ± 0.12.
With CAFTHRPCSHPRLEGQEFCIKHILEDKNAPIKQCSYISTKNGKRCPNAAPKPEKKDGVSFCAEH the abundance fitness was -0.391 ± 0.13.
CAFTHRPCSHPRLEGQEFCIKHILEDKNAPKKQCSYISTKNGKRCPNAAPKPEKKDGVSFCAEH gave an abundance fitness of -0.195 ± 0.068.
With CAFTHRPCSHPRLEGQEFCIKHILEDKNAPLKQCSYISTKNGKRCPNAAPKPEKKDGVSFCAEH the abundance fitness was -0.188 ± 0.052.
CAFTHRPCSHPRLEGQEFCIKHILEDKNAPMKQCSYISTKNGKRCPNAAPKPEKKDGVSFCAEH showed an abundance fitness of -0.175 ± 0.057.
With CAFTHRPCSHPRLEGQEFCIKHILEDKNAPNKQCSYISTKNGKRCPNAAPKPEKKDGVSFCAEH the abundance fitness was -0.323 ± 0.094.
For CAFTHRPCSHPRLEGQEFCIKHILEDKNAPPKQCSYISTKNGKRCPNAAPKPEKKDGVSFCAEH, the abundance fitness was -0.183 ± 0.072.
Variant CAFTHRPCSHPRLEGQEFCIKHILEDKNAPRKQCSYISTKNGKRCPNAAPKPEKKDGVSFCAEH has an abundance fitness of -0.203 ± 0.059.
In the case of CAFTHRPCSHPRLEGQEFCIKHILEDKNAPSKQCSYISTKNGKRCPNAAPKPEKKDGVSFCAEH, the abundance fitness is reported as -0.179 ± 0.058.
CAFTHRPCSHPRLEGQEFCIKHILEDKNAPTKQCSYISTKNGKRCPNAAPKPEKKDGVSFCAEH gave an abundance fitness of -0.21 ± 0.063.
For CAFTHRPCSHPRLEGQEFCIKHILEDKNAPVKQCSYISTKNGKRCPNAAPKPEKKDGVSFCAEH, the abundance fitness was -0.248 ± 0.048.
In the case of CAFTHRPCSHPRLEGQEFCIKHILEDKNAPWKQCSYISTKNGKRCPNAAPKPEKKDGVSFCAEH, the abundance fitness is reported as -0.116 ± 0.088.
For CAFTHRPCSHPRLEGQEFCIKHILEDKNAPYKQCSYISTKNGKRCPNAAPKPEKKDGVSFCAEH, the abundance fitness was -0.195 ± 0.15.
In the case of CAFTHRPCSHPRLEGQEFCIKHILEDKNAPFAQCSYISTKNGKRCPNAAPKPEKKDGVSFCAEH, the abundance fitness is reported as -0.075 ± 0.061.
In the case of CAFTHRPCSHPRLEGQEFCIKHILEDKNAPFCQCSYISTKNGKRCPNAAPKPEKKDGVSFCAEH, the abundance fitness is reported as -0.146 ± 0.098.
CAFTHRPCSHPRLEGQEFCIKHILEDKNAPFDQCSYISTKNGKRCPNAAPKPEKKDGVSFCAEH gave an abundance fitness of -0.136 ± 0.11.
With CAFTHRPCSHPRLEGQEFCIKHILEDKNAPFEQCSYISTKNGKRCPNAAPKPEKKDGVSFCAEH the abundance fitness was -0.026 ± 0.083.
CAFTHRPCSHPRLEGQEFCIKHILEDKNAPFFQCSYISTKNGKRCPNAAPKPEKKDGVSFCAEH gave an abundance fitness of -0.305 ± 0.11.
Variant CAFTHRPCSHPRLEGQEFCIKHILEDKNAPFHQCSYISTKNGKRCPNAAPKPEKKDGVSFCAEH has an abundance fitness of -0.185 ± 0.085.
Work on CAFTHRPCSHPRLEGQEFCIKHILEDKNAPFIQCSYISTKNGKRCPNAAPKPEKKDGVSFCAEH yielded an abundance fitness of -0.135 ± 0.085.
CAFTHRPCSHPRLEGQEFCIKHILEDKNAPFNQCSYISTKNGKRCPNAAPKPEKKDGVSFCAEH showed an abundance fitness of -0.073 ± 0.091.
CAFTHRPCSHPRLEGQEFCIKHILEDKNAPFPQCSYISTKNGKRCPNAAPKPEKKDGVSFCAEH gave an abundance fitness of -0.211 ± 0.073.
For CAFTHRPCSHPRLEGQEFCIKHILEDKNAPFRQCSYISTKNGKRCPNAAPKPEKKDGVSFCAEH, the abundance fitness was -0.041 ± 0.063.
With CAFTHRPCSHPRLEGQEFCIKHILEDKNAPFSQCSYISTKNGKRCPNAAPKPEKKDGVSFCAEH the abundance fitness was -0.093 ± 0.054.
For CAFTHRPCSHPRLEGQEFCIKHILEDKNAPFTQCSYISTKNGKRCPNAAPKPEKKDGVSFCAEH, the abundance fitness was -0.177 ± 0.069.
Variant CAFTHRPCSHPRLEGQEFCIKHILEDKNAPFYQCSYISTKNGKRCPNAAPKPEKKDGVSFCAEH has an abundance fitness of -0.194 ± 0.083.
CAFTHRPCSHPRLEGQEFCIKHILEDKNAPFKACSYISTKNGKRCPNAAPKPEKKDGVSFCAEH gave an abundance fitness of 0.011 ± 0.061.
CAFTHRPCSHPRLEGQEFCIKHILEDKNAPFKCCSYISTKNGKRCPNAAPKPEKKDGVSFCAEH gave an abundance fitness of -0.255 ± 0.14.
